The supplement of paper PMC9112550, “Optimization of the antimicrobial peptide Bac7 by deep mutational scanning” (BMC Biology, 2022)

Tested on: Escherichia coli TOP10
Test: shrunken log2 fold change of peptide-encoding DNA abundance (4.5 h post-induction vs induction); higher = less antimicrobial activity (less host growth inhibition)
Settings: time post-induction: 4.5 h; library: site-saturation at positions 5, 18, 19, 20
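Further: peptides expressed intracellularly from a pBAD plasmid library in pooled LB shake-flask culture, induced with 0.3% L-arabinose, DNA abundance read by NGS, three biological replicates, DESeq2 with apeglm shrinkage.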

Sequence | shrunken log2 fold change
RRIRLRPPRLPRPRPRPKGIPRP | -0.0776
RRIRLRPPRLPRPRPRPKHQPRP | 0.125
RRIRLRPPRLPRPRPRPKIFPRP | -0.0395
RRIRLRPPRLPRPRPRPKIMPRP | -0.314
RRIRLRPPRLPRPRPRPKLRPRP | -0.00715
RRIRLRPPRLPRPRPRPKNKPRP | -0.291
RRIRLRPPRLPRPRPRPKPFPRP | 2.21
RRIRLRPPRLPRPRPRPKPTPRP | 0.15
RRIRLRPPRLPRPRPRPKQPPRP | 0.119
RRIRLRPPRLPRPRPRPKSAPRP | 0.139
RRIRLRPPRLPRPRPRPKSDPRP | 0.00855
RRIRLRPPRLPRPRPRPKSFPRP | -0.0686
RRIRLRPPRLPRPRPRPKSKPRP | -0.071
RRIRLRPPRLPRPRPRPKSTPRP | -0.222
RRIRLRPPRLPRPRPRPKTHPRP | -0.0161
RRIRLRPPRLPRPRPRPKTVPRP | -0.0699
RRIRLRPPRLPRPRPRPKVFPRP | 0.0303
RRIRLRPPRLPRPRPRPKVIPRP | -0.185
RRIRLRPPRLPRPRPRPLAQPRP | 0.73
RRIRLRPPRLPRPRPRPLCLPRP | -0.392
RRIRLRPPRLPRPRPRPLENPRP | 0.0938
RRIRLRPPRLPRPRPRPLFAPRP | 0.233
RRIRLRPPRLPRPRPRPLFKPRP | -0.188
RRIRLRPPRLPRPRPRPLFLPRP | -0.551
RRIRLRPPRLPRPRPRPLFNPRP | -0.468

Sequence | shrunken log2 fold change
RRIRLRPPRLPRPRPRPLFYPRP | -0.238
RRIRLRPPRLPRPRPRPLGLPRP | -0.253
RRIRLRPPRLPRPRPRPLIWPRP | 0.0251
RRIRLRPPRLPRPRPRPLKCPRP | -0.0489
RRIRLRPPRLPRPRPRPLLNPRP | -0.468
RRIRLRPPRLPRPRPRPLPTPRP | 0.293
RRIRLRPPRLPRPRPRPLRNPRP | 0.737
RRIRLRPPRLPRPRPRPLTCPRP | -0.0184
RRIRLRPPRLPRPRPRPLTRPRP | 1.93
RRIRLRPPRLPRPRPRPLVMPRP | -0.0627
RRIRLRPPRLPRPRPRPLVWPRP | 0.193
RRIRLRPPRLPRPRPRPLWGPRP | 0.151
RRIRLRPPRLPRPRPRPLWVPRP | 0.0349
RRIRLRPPRLPRPRPRPLYNPRP | -0.305
RRIRLRPPRLPRPRPRPLYQPRP | -0.833
RRIRLRPPRLPRPRPRPMAFPRP | -0.127
RRIRLRPPRLPRPRPRPMCIPRP | -0.125
RRIRLRPPRLPRPRPRPMDTPRP | -0.323
RRIRLRPPRLPRPRPRPMFHPRP | -0.681
RRIRLRPPRLPRPRPRPMFLPRP | -0.0362
RRIRLRPPRLPRPRPRPMFRPRP | -0.162
RRIRLRPPRLPRPRPRPMHKPRP | -0.449
RRIRLRPPRLPRPRPRPMITPRP | -0.07
RRIRLRPPRLPRPRPRPMKDPRP | -0.111
RRIRLRPPRLPRPRPRPMMQPRP | -0.223

Sequence | shrunken log2 fold change
RRIRLRPPRLPRPRPRPMQWPRP | 0.0515
RRIRLRPPRLPRPRPRPMSEPRP | -0.0383
RRIRLRPPRLPRPRPRPMSMPRP | 0.125
RRIRLRPPRLPRPRPRPMVIPRP | 0.036
RRIRLRPPRLPRPRPRPMWHPRP | 0.203
RRIRLRPPRLPRPRPRPMYLPRP | 0.0092
RRIRLRPPRLPRPRPRPMYQPRP | -0.29
RRIRLRPPRLPRPRPRPMYYPRP | -0.0423
RRIRLRPPRLPRPRPRPNCEPRP | -0.0439
RRIRLRPPRLPRPRPRPNDYPRP | -0.582
RRIRLRPPRLPRPRPRPNGCPRP | 0.00888
RRIRLRPPRLPRPRPRPNGPPRP | -0.146
RRIRLRPPRLPRPRPRPNIKPRP | -0.321
RRIRLRPPRLPRPRPRPNISPRP | -0.373
RRIRLRPPRLPRPRPRPNIYPRP | -0.585
RRIRLRPPRLPRPRPRPNKQPRP | -0.0903
RRIRLRPPRLPRPRPRPNMSPRP | -0.129
RRIRLRPPRLPRPRPRPNNKPRP | -0.357
RRIRLRPPRLPRPRPRPNPDPRP | 0.0991
RRIRLRPPRLPRPRPRPNPRPRP | 0.304
RRIRLRPPRLPRPRPRPNQEPRP | 0.0423
RRIRLRPPRLPRPRPRPNQKPRP | -0.0744
RRIRLRPPRLPRPRPRPNRFPRP | -0.404
RRIRLRPPRLPRPRPRPNRKPRP | -0.223
RRIRLRPPRLPRPRPRPNSTPRP | -0.294

Sequence | shrunken log2 fold change
RRIRLRPPRLPRPRPRPNTTPRP | -0.463
RRIRLRPPRLPRPRPRPNVHPRP | -0.505
RRIRLRPPRLPRPRPRPNVWPRP | 0.346
RRIRLRPPRLPRPRPRPNWTPRP | -0.084
RRIRLRPPRLPRPRPRPNYEPRP | -0.416
RRIRLRPPRLPRPRPRPPAGPRP | 0.607
RRIRLRPPRLPRPRPRPPAMPRP | 0.42
RRIRLRPPRLPRPRPRPPAQPRP | 0.888
RRIRLRPPRLPRPRPRPPCGPRP | 0.191
RRIRLRPPRLPRPRPRPPCSPRP | -0.0182
RRIRLRPPRLPRPRPRPPDKPRP | 0.0844
RRIRLRPPRLPRPRPRPPEDPRP | 0.0763
RRIRLRPPRLPRPRPRPPHTPRP | 0.26
RRIRLRPPRLPRPRPRPPISPRP | 0.0176
RRIRLRPPRLPRPRPRPPLPPRP | 0.502
RRIRLRPPRLPRPRPRPPMWPRP | 0.26
RRIRLRPPRLPRPRPRPPNFPRP | 0.0275
RRIRLRPPRLPRPRPRPPRTPRP | 0.591
RRIRLRPPRLPRPRPRPPTPPRP | 0.617
RRIRLRPPRLPRPRPRPPTYPRP | -0.304
RRIRLRPPRLPRPRPRPPWAPRP | 0.632
RRIRLRPPRLPRPRPRPPWYPRP | -0.312
RRIRLRPPRLPRPRPRPQATPRP | -0.0468
RRIRLRPPRLPRPRPRPQCAPRP | 0.228
RRIRLRPPRLPRPRPRPQCNPRP | -0.0192

Sequence | shrunken log2 fold change
RRIRLRPPRLPRPRPRPQDMPRP | -0.169
RRIRLRPPRLPRPRPRPQDRPRP | 0.128
RRIRLRPPRLPRPRPRPQENPRP | -0.261
RRIRLRPPRLPRPRPRPQGLPRP | -0.0348
RRIRLRPPRLPRPRPRPQGNPRP | -0.0463
RRIRLRPPRLPRPRPRPQHQPRP | -0.261
RRIRLRPPRLPRPRPRPQINPRP | -0.506
RRIRLRPPRLPRPRPRPQLAPRP | 0.384
RRIRLRPPRLPRPRPRPQLYPRP | -0.12
RRIRLRPPRLPRPRPRPQMCPRP | -0.0742
RRIRLRPPRLPRPRPRPQMSPRP | -0.111
RRIRLRPPRLPRPRPRPQNDPRP | -0.271
RRIRLRPPRLPRPRPRPQNSPRP | -0.767
RRIRLRPPRLPRPRPRPQPAPRP | 0.294
RRIRLRPPRLPRPRPRPQPNPRP | -0.00696
RRIRLRPPRLPRPRPRPQTSPRP | -0.106
RRIRLRPPRLPRPRPRPQVLPRP | -0.0429
RRIRLRPPRLPRPRPRPQVWPRP | 0.000105
RRIRLRPPRLPRPRPRPQYRPRP | -0.188
RRIRLRPPRLPRPRPRPQYYPRP | -0.396
RRIRLRPPRLPRPRPRPRCRPRP | 0.434
RRIRLRPPRLPRPRPRPRDCPRP | -0.0082
RRIRLRPPRLPRPRPRPRDLPRP | 0.0268
RRIRLRPPRLPRPRPRPRDQPRP | 0.0949
RRIRLRPPRLPRPRPRPRDSPRP | -0.00311

Sequence | shrunken log2 fold change
RRIRLRPPRLPRPRPRPREYPRP | 0.289
RRIRLRPPRLPRPRPRPRFFPRP | 0.0823
RRIRLRPPRLPRPRPRPRFRPRP | 0.117
RRIRLRPPRLPRPRPRPRGSPRP | 0.16
RRIRLRPPRLPRPRPRPRHDPRP | 0.0303
RRIRLRPPRLPRPRPRPRIAPRP | 0.317
RRIRLRPPRLPRPRPRPRINPRP | -0.0907
RRIRLRPPRLPRPRPRPRKAPRP | 0.022
RRIRLRPPRLPRPRPRPRKGPRP | 0.0226
RRIRLRPPRLPRPRPRPRMAPRP | 0.39
RRIRLRPPRLPRPRPRPRMDPRP | -0.106
RRIRLRPPRLPRPRPRPRMFPRP | -0.0408
RRIRLRPPRLPRPRPRPRMVPRP | 0.0504
RRIRLRPPRLPRPRPRPRNTPRP | -0.0367
RRIRLRPPRLPRPRPRPRPMPRP | 0.725
RRIRLRPPRLPRPRPRPRPVPRP | 0.637
RRIRLRPPRLPRPRPRPRPWPRP | 0.199
RRIRLRPPRLPRPRPRPRREPRP | 0.223
RRIRLRPPRLPRPRPRPRSKPRP | -0.111
RRIRLRPPRLPRPRPRPRSRPRP | 0.394
RRIRLRPPRLPRPRPRPRTHPRP | 0.189
RRIRLRPPRLPRPRPRPRWDPRP | 0.141
RRIRLRPPRLPRPRPRPRWMPRP | 0.162
RRIRLRPPRLPRPRPRPRWVPRP | 0.237
RRIRLRPPRLPRPRPRPSAVPRP | -0.16
